According to patent US20230272048A1 (UNIVERSITY OF MELBOURNE, published 2023):

T1: Jo-1 (human, UniProt P12081 1-509)
T1 sequence (looked up): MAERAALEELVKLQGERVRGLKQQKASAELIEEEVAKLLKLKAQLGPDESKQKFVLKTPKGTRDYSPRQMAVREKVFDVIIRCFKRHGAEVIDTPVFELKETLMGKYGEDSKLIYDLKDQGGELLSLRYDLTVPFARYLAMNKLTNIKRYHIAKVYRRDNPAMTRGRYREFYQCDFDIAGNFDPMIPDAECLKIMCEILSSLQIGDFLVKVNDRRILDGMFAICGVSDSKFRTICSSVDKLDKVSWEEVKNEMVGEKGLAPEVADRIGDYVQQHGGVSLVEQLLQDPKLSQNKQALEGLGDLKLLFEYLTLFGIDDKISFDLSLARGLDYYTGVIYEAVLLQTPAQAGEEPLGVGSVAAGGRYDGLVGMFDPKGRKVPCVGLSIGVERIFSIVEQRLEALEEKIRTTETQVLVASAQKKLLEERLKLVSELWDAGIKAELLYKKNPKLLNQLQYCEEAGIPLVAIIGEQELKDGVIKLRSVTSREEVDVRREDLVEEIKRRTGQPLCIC

T2: SS-B (human, UniProt P05455 1-408)
T2 sequence (looked up): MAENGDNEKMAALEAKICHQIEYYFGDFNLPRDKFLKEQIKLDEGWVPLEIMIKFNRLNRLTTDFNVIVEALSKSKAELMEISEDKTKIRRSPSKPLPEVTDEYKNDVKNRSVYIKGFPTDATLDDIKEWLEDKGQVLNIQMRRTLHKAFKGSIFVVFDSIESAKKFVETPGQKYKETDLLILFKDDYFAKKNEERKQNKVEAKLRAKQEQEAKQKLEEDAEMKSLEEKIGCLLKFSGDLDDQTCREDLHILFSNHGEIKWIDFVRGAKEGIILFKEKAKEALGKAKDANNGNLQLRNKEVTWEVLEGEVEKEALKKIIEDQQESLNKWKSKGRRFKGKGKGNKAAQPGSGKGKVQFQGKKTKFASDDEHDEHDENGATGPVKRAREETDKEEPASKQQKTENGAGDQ

T3: Scl-70 (human, UniProt P11387 1-765)
T3 sequence (looked up): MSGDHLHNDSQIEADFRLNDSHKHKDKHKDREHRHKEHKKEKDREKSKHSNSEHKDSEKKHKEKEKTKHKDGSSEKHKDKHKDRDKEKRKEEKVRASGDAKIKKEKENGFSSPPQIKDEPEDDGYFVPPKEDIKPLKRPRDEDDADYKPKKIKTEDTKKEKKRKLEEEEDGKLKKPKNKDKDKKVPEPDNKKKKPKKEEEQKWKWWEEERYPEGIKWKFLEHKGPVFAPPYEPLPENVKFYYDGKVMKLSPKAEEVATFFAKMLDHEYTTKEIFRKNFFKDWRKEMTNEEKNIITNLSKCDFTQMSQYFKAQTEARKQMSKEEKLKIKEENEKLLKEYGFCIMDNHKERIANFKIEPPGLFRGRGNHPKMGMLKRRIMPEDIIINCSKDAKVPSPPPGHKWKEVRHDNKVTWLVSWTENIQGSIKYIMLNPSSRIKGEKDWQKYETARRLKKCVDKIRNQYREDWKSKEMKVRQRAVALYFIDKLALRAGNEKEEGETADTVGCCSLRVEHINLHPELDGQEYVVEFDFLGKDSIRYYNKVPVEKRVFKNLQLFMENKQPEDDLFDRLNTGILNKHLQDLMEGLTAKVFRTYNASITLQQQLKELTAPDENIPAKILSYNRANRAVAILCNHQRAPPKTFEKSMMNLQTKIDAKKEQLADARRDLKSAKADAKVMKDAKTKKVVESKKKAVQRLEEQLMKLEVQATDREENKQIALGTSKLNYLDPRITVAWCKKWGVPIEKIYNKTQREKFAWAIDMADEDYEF

T4: CenpB (human, UniProt P07199 1-599)
T4 sequence (looked up): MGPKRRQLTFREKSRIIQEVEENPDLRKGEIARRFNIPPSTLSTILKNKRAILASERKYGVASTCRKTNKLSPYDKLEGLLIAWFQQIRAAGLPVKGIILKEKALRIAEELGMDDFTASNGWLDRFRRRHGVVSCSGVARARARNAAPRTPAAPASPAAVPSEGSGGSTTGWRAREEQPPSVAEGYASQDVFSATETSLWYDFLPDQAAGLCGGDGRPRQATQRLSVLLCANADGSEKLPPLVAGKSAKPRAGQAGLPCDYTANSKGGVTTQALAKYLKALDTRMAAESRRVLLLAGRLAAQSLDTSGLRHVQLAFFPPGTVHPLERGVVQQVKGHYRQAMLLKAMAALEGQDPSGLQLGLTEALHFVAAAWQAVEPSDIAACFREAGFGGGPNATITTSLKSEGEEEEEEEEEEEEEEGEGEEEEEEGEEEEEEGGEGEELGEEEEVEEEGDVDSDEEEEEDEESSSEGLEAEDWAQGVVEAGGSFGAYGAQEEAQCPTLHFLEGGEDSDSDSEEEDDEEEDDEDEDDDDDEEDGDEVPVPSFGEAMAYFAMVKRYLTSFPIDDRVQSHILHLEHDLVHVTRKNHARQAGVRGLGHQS


Columns and labels:
Jo-1 [1] = target: T1, Jo-1; assay: single autoantigen ELISA (AESKULISA ANA-8Pro), FIG. 9A; antibody printed as '1879'
SS-B [2] = target: T2, SS-B; assay: as above
Scl-70 [3] = target: T3, Scl-70; assay: as above
CenpB = target: T4, CenpB; assay: as above
[4] = target: AD8 WT Env (gp160, from lysed pseudovirions / on pseudovirus) (HIV-1 AD8, clade B); assay: cell-based or functional assay
Jo-1 [5] = target: T1, Jo-1; assay: single autoantigen ELISA (AESKULISA ANA-8Pro), FIG. 9A
SS-B [6] = target: T2, SS-B; assay: as above
Scl-70 [7] = target: T3, Scl-70; assay: as above
monomeric AD8 gp120 = target: T5, monomeric AD8 gp120 (HIV-1 AD8, clade B); assay: direct ELISA, plates coated with 1 µg/ml Env (FIG. 6C)
T5 construct: also called monomeric gp120; monomeric gp120 form of Env

Binder	binding result (Jo-1 [1])	binding result (SS-B [2])	binding result (Scl-70 [3])	binding result (CenpB)	IC50 (read off the curve); axis Neutralisation (%), panel AD8 [4]	binding result (Jo-1 [5])	binding result (SS-B [6])	binding result (Scl-70 [7])	binding result (monomeric AD8 gp120)
MEL-1872 (antibody, also called H 1872; BrNAb MEL-1872) VH: KVQLRESGPSLVKPSQTLSLTCTASGFSLSDKAVGWVRQAPGQPLEWLGTIDTTGNAVYNPGLKSRLSITKDNSKSQVSLSLSSVTTEDSATYHCSTVHQKTRRSCPSDYSFICDCEGTGSHCCRASNCPYYCNYGRDRMCTGRSNIHEWHVDAWGQGLLVTVSS VL: QAVLTQPSSVSGSLGQRVSTTCSGSSSNVGNGYVSWYQLIPGSAPRTLIYGDTSRASGVPDRFSGSRSGNTVTLTISSLQAEDEADYFCASAEDGSSNAVFGRGTTLTV	no binding (tested: 100 µg/ml)	no binding (tested: 100 µg/ml)	no binding (tested: 100 µg/ml)	no binding (tested: 100 µg/ml)	~7 ng/mL				
MEL-2129 (antibody, also called BrNAb MEL-2129) VH: KVQLRESGPSLVKPSQTLSLTCTASGFSLSDKAVGWVRQAPGKALEWLGSIDTGGNAGYNPGLKSRLSITKGNSKSQVSLSVSSVTTEDSATYYCSTVHQKTRRSCPVDYYYSCDCEGSGSHCCSASNCPYYCKYGRDRVCTDKHTYSYEWYVDAWGQGLLVTVSS VL: QAVLTQPSSVSGSLGQRVSTTCSGSSSNVGNGYVSWYQLIPGSAPRTLIYGDTSRASGVPDRFSGSRSGNTVTLTISSLQAEDEADYFCASAEDGSSNAVFGRGTTLTV						no binding (tested: 100 µg/ml)	no binding (tested: 100 µg/ml)	no binding (tested: 100 µg/ml)	
MEL-1842 (antibody, also called H 1842; BrNAb MEL-1842) VH: KVQLQESGPSLVKPSQTLSLTCTASGFSLSDKAVGWVRQAPGQALEWLGSIDTGGNADYNPGLKSRLSITKDNAKSQVSLSVSSVTTEGSATYYCSTVHQKTLRSCPSDYPYICDCEDTGSHCCRATNCPYYCNHGRDRMCTGRTYTYEWHVEAWGQGLLVTVSS VL: QAVLTQPSSVSGSLGQRVSTTCSGSSSNVGNGYVSWYQLIPGSAPRTLIYGDTSRASGVPDRFSGSRSGNTVTLTISSLQAEDEADYFCASAEDGSSNAVFGRGTTLTV						no binding (tested: 100 µg/ml)	no binding (tested: 100 µg/ml)	no binding (tested: 100 µg/ml)	binds
